Measured values as given in US20240392271A1, “ENGINEERED CASX REPRESSOR SYSTEMS” (Scribe Therapeutics Inc., priority 2021, published 2024).
Positions count from the first letter of the chain named.

Columns and labels:
[1] = Editing assays comparing gRNA scaffolds; details: compared with gRNA scaffold 174
[2] = system: endogenous B2M (beta-2-microglobulin) gene; test: B2M protein expression by HLA antibody flow cytometry, dXR constructs (Example 1, Table 14); type: cell-based, human; details: for % cells expressing B2M protein: HEK293T cells, % of cells counted that were positive, biological triplicates
Excerpt: dXR variant plasmids encoding constructs having the configuration of U6-gRNA+Ef1α-NLS-GGS-dCasX491-GGS-KRAB variant-NLS (dCasX491 refers to catalytically-dead CasX 491), were transiently transfected into HEK293T cells in an arrayed 96-well format. These constructs also contained a 2× FLAG sequence, as well as sequences encoding either a gRNA scaffold 174 (SEQ ID NO: 2238) having a spacer (spacer 7.37) targeting the endogenous B2M (beta-2-microglobulin) gene or a non-targeting control (spacer 0.0), which were all cloned upstream of a P2A-puromycin element on the plasmid. Four different effector domains were tested in addition to the “naked” dCasX491 (KRAB variant domains listed in Table 9; spacer sequences listed in Table 10; sequences of additional elements listed in Table 11). The corresponding protein sequences of the dXR molecule are listed in Table 13, and the generic configuration of the dXR molecule is illustrated in FIG. 38. Positive and negative controls based on a catalytically-dead Cas9 nuclease (with or without a ZNF10 repressor) with a B2M-targeting gRNA (spacer 7.14) or a non-targeting gRNA control (spacer 0.0) were included, along with a catalytically-active CasX 491 and gRNA with the same 7.37 and 0.0 spacers. Two days after transfection, total RNA was harvested, and reverse transcribed to generate a cDNA library. Changes in gene expression were calculated by performing qPCR on the targeted gene and a housekeeping gene as reference. Relative gene expression represents the amount of target-specific RNA relative to a reference gene normalized to the non-targeting guide condition for two biological replicates. In addition to the wells used for RNA measurements, a separate set of wells was harvested seven days post-transfection and analyzed for B2M protein expression. Expression of B2M protein was determined by using an antibody that detects the B2M-dependent HLA protein complex on the cell surface. […]

human B2M locus = test: Editing (indel rate by NGS) at the B2M locus by catalytically-dead CasX variants (Example 8); type: cell-based; details: HEK293T, B2M-targeting spacer 7.37, six days after transfection
HBEGF locus = type: cell-based, human; details: dCasX491-KRAB lentiviral library, spacer 34.28, HEK293T, 2 ng/ml diphtheria toxin 48 hours

B1: 316 scaffold: chimeric RNA scaffold: scaffold 235 with extended stem loop of scaffold 174, SEQ ID NO: 59352, 89 nucleotides (nucleic acid)
guide: ACUGGCGCUUCUAUCUGAUUACUCUGAGCGCCAUCACCAGCGACUAUGUCGUAGUGGGUAAAGCUCCCUCUUCGGAGGGAGCAUCAGAG
modifications: listed as RNA, further chemistry not given here
performance in editing assays [1]: comparably or more favorably than gRNA scaffold 174

B2: dCasX491: catalytically-dead CasX 491, SEQ ID NO: 18 (protein)
chain: QEIKRINKIRRRLVKDSNTKKAGKTGPMKTLLVRVMTPDLRERLENLRKKPENIPQPISNTSRANLNKLLTDYTEMKKAILHVYWEEFQKDPVGLMSRVAQPASKKIDQNKLKPEMDEKGNLTTAGFACSQCGQPLFVYKLEQVSEKGKAYTNYFGRCNVAEHEKLILLAQLKPEKDSDEAVTYSLGKFGQRALDFYSIHVTKESTHPVKPLAQIAGNRYASGPVGKALSDACMGTIASFLSKYQDIIIEHQKVVKGNQKRLESLRELAGKENLEYPSVTLPPQPHTKEGVDAYNEVIARVRMWVNLNLWQKLKLSRDDAKPLLRLKGFPSFPLVERQANEVDWWDMVCNVKKLINEKKEDGKVFWQNLAGYKRQEALRPYLSSEEDRKKGKKFARYQLGDLLLHLEKKHGEDWGKVYDEAWERIDKKVEGLSKHIKLEEERRSEDAQSKAALTDWLRAKASFVIEGLKEADKDEFCRCELKLQKWYGDLRGKPFAIEAENSILDISGFSKQYNCAFIWQKDGVKKLNLYLIINYFKGGKLRFKKIKPEAFEANRFYTVINKKSGEIVPMEVNFNFDDPNLIILPLAFGKRQGREFIWNDLLSLETGSLKLANGRVIEKTLYNRRTRQDEPALFVALTFERREVLDSSNIKPMNLIGVARGENIPAVIALTDPEGCPLSRFKDSLGNPTHILRIGESYKEKQRTIQAKKEVEQRRAGGYSRKYASKAKNLADDMVRNTARDLLYYAVTQDAMLIFANLSRGFGRQGKRTFMAERQYTRMEDWLTAKLAYEGLSKTYLSKTLAQYTSKTCSNCGFTITSADYDRVLEKLKKTATGWMTTINGKELKVEGQITYYNRYKRQNVVKDLSVELDRLSEESVNNDISSWTKGRSGEALSLLKKRFSHRPVQEKFVCLNCGFETHAAEQAALNIARSWLFLRSQEYKKYQTNKTTGNTDKRAFVETWQSFYRKKLKEVWKPAV
% cells expressing B2M protein ([2]; B2M-targeting spacer 7.37): 85.70% | cells negative for the B2M protein ([2]; HEK293T, seven days post-transfection, B2M-targeting gRNA, HLA flow cytometry): ~10% | % cells expressing B2M protein ([2]; non-targeting spacer 0.0): 95.90% | percent editing at the B2M locus measured as indel rate by NGS (human B2M locus): did not exhibit editing

B3: dCasX668: catalytically-dead CasX 668, SEQ ID NO: 59355 (protein)
chain: QEIKRINKIRRRLVKDSNTKKAGKTRGPMKTLLVRVMTPDLRERLENLRKKPENIPQPISNTSRANLNKLLTDYTEMKKAILHVYWEEFQKDPVGLMSRVAQPASKKIDQNKLKPEMDEKGNLTTAGFACSQCGQPLFVYKLEQVSEKGKAYTNYFGRCNVAEHEKLILLAQLKPEKDSDEAVTYSLGKFGQRALDFYSIHVTKESTHPVKPLAQIAGNRYASSPVGKALSDACMGTIASFLSKYQDIIIEHQKVVKGNQKRLESLRELAGKENLEYPSVTLPPQPHTKEGVDAYNEVIARVRMWVNLNLWQKLKLSRDDAKPLLRLKGFPSFPLVERQANEVDWWDMVCNVKKLINEKKEDGKVFWQNLAGYKRQEALRPYLSSEEDRKKGKKFARYQLGDLLLHLEKKHGEDWGKVYDEAWERIDKKVEGLSKHIKLEEERRSEDAQSKAALTDWLRAKASFVIEGLKEADKDEFCRCELKLQKWYGDLRGKPFAIEAENSILDISGFSKQYNCAFIWQKDGVKKLNLYLIINYFKGGKLRFKKIKPEAFEANRFYTVINKKSGEIVPMEVNFNFDDPNLIILPLAFGKRQGREFIWNDLLSLETGSLKLANGRVIEKTLYNRRTRQDEPALFVALTFERREVLDSSNIKPMNLIGVARGENIPAVIALTDPEGCPLSRFKDSLGNPTHILRIGESYKEKQRTIQAKKEVEQRRAGGYSRKYASKAKNLADDMVRNTARDLLYYAVTQDAMLIFANLSRGFGRQGKRTFMAERQYTRMEDWLTAKLAYEGLPSKTYLSKTLAQYTSKTCSNCGFTITSADYDRVLEKLKKTATGWMTTINGKELKVEGQITYYNRYKRQNVVKDLSVELDRLSEESVNNDISSWTKGRSGEALSLLKKRFSHRPVQEKFVCLNCGFETHAAEQAALNIARSWLFLRSQEYKKYQTNKTTGNTDKRAFVETWQSFYRKKLKEVWKPAV
percent editing at the B2M locus measured as indel rate by NGS (human B2M locus): did not exhibit editing

B4: dCasX676: catalytically-dead CasX 676, SEQ ID NO: 59357 (protein)
chain: B3 chain with L169K
percent editing at the B2M locus measured as indel rate by NGS (human B2M locus): did not exhibit editing

B5: DOMAIN_26749: KRAB domain derived from the king cobra, Ophiophagus hannah, SEQ ID NO: 57755; top 10 (protein)
chain: STPVTFEDVVVYFTAAEWVHLTNWQRDFYQAVMMETYELVASVAGDGVPMAEDEEGGVERPVWQYIPRGKRRRKTPQPRAD
modifications: Ophiophagus hannah
log2 (fold change) in abundance of the KRAB domain before and after selection (HBEGF locus): highest log (fold change)

B6: dCasX527: catalytically-dead CasX 527, SEQ ID NO: 24 (protein)
chain: QEIKRINKIRRRLVKDSNTKKAGKTRGPMKTLLVRVMTPDLRERLENLRKKPENIPQPISNTSRANLNKLLTDYTEMKKAILHVYWEEFQKDPVGLMSRVAQPASKKIDQNKLKPEMDEKGNLTTAGFACSQCGQPLFVYKLEQVSEKGKAYTNYFGRCNVAEHEKLILLAQLKPEKDSDEAVTYSLGKFGQRALDFYSIHVTKESTHPVKPLAQIAGNRYASGPVGKALSDACMGTIASFLSKYQDIIIEHQKVVKGNQKRLESLRELAGKENLEYPSVTLPPQPHTKEGVDAYNEVIARVRMWVNLNLWQKLKLSRDDAKPLLRLKGFPSFPLVERQANEVDWWDMVCNVKKLINEKKEDGKVFWQNLAGYKRQEALRPYLSSEEDRKKGKKFARYQLGDLLLHLEKKHGEDWGKVYDEAWERIDKKVEGLSKHIKLEEERRSEDAQSKAALTDWLRAKASFVIEGLKEADKDEFCRCELKLQKWYGDLRGKPFAIEAENSILDISGFSKQYNCAFIWQKDGVKKLNLYLIINYFKGGKLRFKKIKPEAFEANRFYTVINKKSGEIVPMEVNFNFDDPNLIILPLAFGKRQGREFIWNDLLSLETGSLKLANGRVIEKTLYNRRTRQDEPALFVALTFERREVLDSSNIKPMNLIGVARGENIPAVIALTDPEGCPLSRFKDSLGNPTHILRIGESYKEKQRTIQAKKEVEQRRAGGYSRKYASKAKNLADDMVRNTARDLLYYAVTQDAMLIFANLSRGFGRQGKRTFMAERQYTRMEDWLTAKLAYEGLSKTYLSKTLAQYTSKTCSNCGFTITSADYDRVLEKLKKTATGWMTTINGKELKVEGQITYYNRYKRQNVVKDLSVELDRLSEESVNNDISSWTKGRSGEALSLLKKRFSHRPVQEKFVCLNCGFETHAAEQAALNIARSWLFLRSQEYKKYQTNKTTGNTDKRAFVETWQSFYRKKLKEVWKPAV
percent editing at the B2M locus measured as indel rate by NGS (human B2M locus): did not exhibit editing
